T1: LGN GL3 motif (mouse)
T1 chain: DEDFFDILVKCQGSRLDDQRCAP

T2: AGS3-GL1234 (470–631) (mouse)
T2 chain: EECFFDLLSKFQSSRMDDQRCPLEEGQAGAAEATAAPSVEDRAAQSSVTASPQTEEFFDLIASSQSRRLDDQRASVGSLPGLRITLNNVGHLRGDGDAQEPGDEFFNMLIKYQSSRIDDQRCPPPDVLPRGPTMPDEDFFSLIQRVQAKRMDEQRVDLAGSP

T3: LGN GL4 motif (mouse)
T3 chain: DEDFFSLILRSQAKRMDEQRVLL

T4: LGN-GL1234 (483–650) (mouse)
T4 chain: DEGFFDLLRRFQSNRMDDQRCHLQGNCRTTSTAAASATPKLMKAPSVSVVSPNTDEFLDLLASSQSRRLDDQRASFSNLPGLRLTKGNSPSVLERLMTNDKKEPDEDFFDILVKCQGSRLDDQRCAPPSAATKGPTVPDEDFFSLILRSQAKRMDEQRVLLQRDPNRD

T5: AGS3-TPR (1–405) (mouse)
T5 chain: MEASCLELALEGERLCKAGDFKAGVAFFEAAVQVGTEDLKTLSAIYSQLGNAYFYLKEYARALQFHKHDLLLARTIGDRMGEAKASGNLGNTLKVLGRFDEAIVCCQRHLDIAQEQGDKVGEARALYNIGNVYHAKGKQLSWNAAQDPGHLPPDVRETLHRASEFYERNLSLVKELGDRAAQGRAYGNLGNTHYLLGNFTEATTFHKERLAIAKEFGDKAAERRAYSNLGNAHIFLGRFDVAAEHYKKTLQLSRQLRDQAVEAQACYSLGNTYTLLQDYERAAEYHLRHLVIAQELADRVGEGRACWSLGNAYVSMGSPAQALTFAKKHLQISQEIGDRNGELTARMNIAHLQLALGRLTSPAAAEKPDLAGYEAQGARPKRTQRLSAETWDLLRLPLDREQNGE

T6: FL-LGN-4E (mouse, UniProt Q8VDU0)
T6 sequence (Q8VDU0 whole entry, looked up): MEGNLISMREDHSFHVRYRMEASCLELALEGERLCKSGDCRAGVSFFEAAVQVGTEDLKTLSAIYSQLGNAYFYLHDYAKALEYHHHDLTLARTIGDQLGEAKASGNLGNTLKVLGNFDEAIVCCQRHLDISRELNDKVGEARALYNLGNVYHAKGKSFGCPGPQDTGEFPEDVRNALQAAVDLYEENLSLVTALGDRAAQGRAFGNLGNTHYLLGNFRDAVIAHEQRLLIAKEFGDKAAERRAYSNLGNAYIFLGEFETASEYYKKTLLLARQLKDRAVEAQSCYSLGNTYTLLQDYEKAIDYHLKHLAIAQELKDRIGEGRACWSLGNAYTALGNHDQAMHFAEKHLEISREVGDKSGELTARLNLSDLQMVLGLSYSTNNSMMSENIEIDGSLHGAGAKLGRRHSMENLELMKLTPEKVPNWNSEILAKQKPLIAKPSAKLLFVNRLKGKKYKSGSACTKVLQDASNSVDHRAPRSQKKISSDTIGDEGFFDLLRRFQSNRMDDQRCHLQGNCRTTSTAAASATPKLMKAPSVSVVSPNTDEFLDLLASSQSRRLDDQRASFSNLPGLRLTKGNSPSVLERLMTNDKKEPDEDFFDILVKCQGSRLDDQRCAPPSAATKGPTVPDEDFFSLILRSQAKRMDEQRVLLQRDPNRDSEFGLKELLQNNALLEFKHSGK

T7: FL-AGS3-4E (mouse, UniProt Q6IR34)
T7 sequence (Q6IR34 whole entry, looked up): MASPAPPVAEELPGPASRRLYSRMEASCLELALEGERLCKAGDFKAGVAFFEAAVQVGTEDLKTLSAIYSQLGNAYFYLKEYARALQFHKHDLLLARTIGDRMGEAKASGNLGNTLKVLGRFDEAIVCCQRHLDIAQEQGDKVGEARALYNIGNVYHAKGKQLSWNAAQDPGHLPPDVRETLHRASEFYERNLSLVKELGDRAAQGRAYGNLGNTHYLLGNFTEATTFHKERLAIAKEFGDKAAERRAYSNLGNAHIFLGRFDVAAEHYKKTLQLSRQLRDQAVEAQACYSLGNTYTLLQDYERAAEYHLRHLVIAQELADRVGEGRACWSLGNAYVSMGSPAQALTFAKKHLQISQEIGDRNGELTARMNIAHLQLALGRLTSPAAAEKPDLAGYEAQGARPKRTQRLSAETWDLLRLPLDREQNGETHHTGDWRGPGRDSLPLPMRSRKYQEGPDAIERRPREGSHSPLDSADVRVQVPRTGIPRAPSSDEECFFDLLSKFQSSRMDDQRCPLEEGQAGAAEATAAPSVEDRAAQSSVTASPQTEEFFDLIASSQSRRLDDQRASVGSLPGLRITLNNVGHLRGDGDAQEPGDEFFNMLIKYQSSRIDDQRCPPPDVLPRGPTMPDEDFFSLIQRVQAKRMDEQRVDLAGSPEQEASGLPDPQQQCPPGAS

T8: AGS3-L (−23–405) (mouse)
T8 chain: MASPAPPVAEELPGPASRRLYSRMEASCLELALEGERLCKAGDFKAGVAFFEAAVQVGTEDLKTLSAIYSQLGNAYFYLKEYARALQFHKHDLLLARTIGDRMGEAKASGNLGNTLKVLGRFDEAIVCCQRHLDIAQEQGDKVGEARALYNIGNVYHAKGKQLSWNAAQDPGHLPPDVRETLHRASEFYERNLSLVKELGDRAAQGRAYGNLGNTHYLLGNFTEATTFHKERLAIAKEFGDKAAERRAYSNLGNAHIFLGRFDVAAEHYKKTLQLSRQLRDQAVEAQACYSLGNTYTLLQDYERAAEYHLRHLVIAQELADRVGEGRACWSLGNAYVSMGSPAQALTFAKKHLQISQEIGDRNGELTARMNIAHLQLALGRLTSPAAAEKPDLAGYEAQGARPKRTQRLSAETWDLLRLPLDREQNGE

T9: NuMA (1886–1912) (human, UniProt Q14980-2 1886-1912)
T9 chain: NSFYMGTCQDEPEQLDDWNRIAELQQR

B1: Gαi3⋅GDP (natural protein)
chain: MGCTLSAEDKAAVERSKMIDRNLREDGEKAAKEVKLLLLGAGESGKSTIVKQMKIIHEDGYSEDECKQYKVVVYSNTIQSIIAIIRAMGRLKIDFGEAARADDARQLFVLAGSAEEGVMTPELAGVIKRLWRDGGVQACFSRSREYQLNDSASYYLNDLDRISQSNYIPTQQDVLRTRVKTTGIVETHFTFKDLYFKMFDVGGQRSERKKWIHCFEGVTAIIFCVALSDYDLVLAEDEEMNRMHESMKLFDSICNNKWFTETSIILFLNKKDLFEEKIKRSPLTICYPEYTGSNTYEEAAAYIQCQFEDLNRRKDTKEIYTHFTCATDTKNVQFVFDAVTDVIIKNNLKECGLY
B2: Insc (18–66) (domain or fragment)
chain: WGLWGAQESRRLCCVGPDRCGQALLQIGINMMALPGGRHLDSVPLQEQR
B3: LGN-TPR (1–409) (domain or fragment)
chain: MREDHSFHVRYRMEASCLELALEGERLCKSGDCRAGVSFFEAAVQVGTEDLKTLSAIYSQLGNAYFYLHDYAKALEYHHHDLTLARTIGDQLGEAKASGNLGNTLKVLGNFDEAIVCCQRHLDISRELNDKVGEARALYNLGNVYHAKGKSFGCPGPQDTGEFPEDVRNALQAAVDLYEENLSLVTALGDRAAQGRAFGNLGNTHYLLGNFRDAVIAHEQRLLIAKEFGDKAAERRAYSNLGNAYIFLGEFETASEYYKKTLLLARQLKDRAVEAQSCYSLGNTYTLLQDYEKAIDYHLKHLAIAQELKDRIGEGRACWSLGNAYTALGNHDQAMHFAEKHLEISREVGDKSGELTARLNLSDLQMVLGLSYSTNNSMMSENIEIDGSLHGAGAKLGRRHSMENLELMK

Legend:
LGN GL3 motif = biological target: T1, LGN GL3 motif; assay: ITC
AGS3-GL1234 (470–631) = biological target: T2, AGS3-GL1234 (470–631); assay: ITC
LGN GL4 motif = biological target: T3, LGN GL4 motif; assay: ITC
LGN-GL1234 (483–650) = biological target: T4, LGN-GL1234 (483–650); assay: ITC
AGS3-TPR (1–405) = biological target: T5, AGS3-TPR (1–405); assay: ITC; AGS3-TPR premixed with NuMA (1886–1912)
FL-LGN-4E = biological target: T6, FL-LGN-4E; assay: ITC
FL-AGS3-4E = biological target: T7, FL-AGS3-4E; assay: ITC
AGS3-L (−23–405) = biological target: T8, AGS3-L (−23–405); assay: ITC
LGN-TPR (1–409) = biological target: B3; assay: ITC
NuMA (1886–1912) = biological target: T9, NuMA (1886–1912); assay: ITC
Insc (18–66) = biological target: B2; assay: ITC

B1 gave a Kd (LGN GL3 motif) of 42 nM, a Kd (AGS3-GL1234 (470–631)) of 280 nM and a Kd (LGN GL4 motif) of 190 nM. It also gave a Kd (LGN-GL1234 (483–650)) of 260 nM.

For B2, the Kd (AGS3-TPR (1–405)) was 12.7 µM, the Kd (FL-LGN-4E) was 580 nM and the Kd (FL-AGS3-4E) was 290 nM. It also gave a Kd (AGS3-L (−23–405)) of 870 nM and a Kd (LGN-TPR (1–409)) of 980 nM.

In the case of B3, the Kd (NuMA (1886–1912)) is reported as 630 nM and the Kd (Insc (18–66)) is reported as 980 nM.

From article PMC12151148 (2024)
